# Experimental data published in a protein production outcome set (Wang et al. 2014).
# Experiment: label from the status in PepcDB records
# 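Also: failed if final PepcDB status was selected cloned or expressed and not failed if soluble or beyond.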
row,Sequence,protein production
1,MRHGEIARAARSAVPRRARAALPLACAALVAAGLAARAAGAAAPPPAPPAAAPARVLSAAVKGPITGGTVEYLEAALARARTGGFAALVVTLDTPGGQLDATREIVQAMLATEVPVIVWVGPAGARAGSAGVFLTLAADVAAMHPTSNIGAAHPVTGAGKDVAEEAGKDMAKKVENDTAAFARSVAAARGRNADWAEKAVRESVSVTAEEALRLKVADLTAADLPELLAKADGRKVGQGAAARPLKVAGAAIEPYEPTVRQRLLGFLADPNVMAILMLVGMLGIAVEFYHPGMIFPGAVGGFCLFLAFLAMRVIPVNVGAVILLLAGVGLLVAEAYVTAHGLAGLAGAACLVLGTLFFVNTSAPGDWFDPGALRLSPWVIWPTPAALALLLAFMAWNVARVRRAPLQLGAPALVGAPGEALSEIGPAAGEAFVHGEYWQARSAAPIPRGAAVRVVAVEGLTVTVVAAGPGNG,failed
2,MRHLITSLQNHNGQLKGEVQRYKRKYKDTSTDNLKLRQELADALATLEGNKLQAATGAAGEEIKQENSTGVKEENSNNVSASGQTNQTNSGNDTNVAIKEENHISAEDEADDEASGKDVKDGIKQEKLSSGDAAAAEKKDSPGPGNSTSSATNSVPVKNEKDSKDGVKGKDVKAVESETV,failed
3,MRHNIKFKSKGTLKIRNTAQISLWKKCSDSMIADQTYLFINRVQDRRFDEESLRILELSLVAMNVKSFLEVRSRLRDFMRSESVVIFGELTGESMVAKLSVLEFFARAFALLGDMESCLAMRYEALNLRQLKSPSCLWLGVSHSEWTKFAVQSMENGFPSIAGKASENALLSLKKDSLIEPKSEDNSDILDAAEKVRRLRDSAASLTSSHSGIFIYIVSSLKFAVCNRLLTTF,failed
4,MRHWLILFLLALPCLAGAVSFNEQVERLPLGQSIDVFEDVRGSADINDITSRAIDSSFRRHDKDVLNAGYSRSVFWLRLDLDYRPVASSDPRTWLLELAYPPLDKLDLYLPDGQGGYRLAQRTGDTLPFASRPIRQNNYLFELGLEPNKPQRVYLRLESQGSIQAPLTLWSPKAYLEEQPERIYVLGIIYGVLLVMLIYNLFIFLSVRDTSYLYYILYIASFGLYQVSVNGAGIEYFWPDSPWWANAATPFLIGSAALFGCQFARSFLHTRDHSVWVDRGLLALMAVGALVMLMALTMSYAVALRLATYLALAFTGLIFAAGILAWLRGMRVARYFIIAWTAFLLGGIVNTLMVLGYLPNMFLTMYASQIGSALEVGLLSLALADRINAMKEERARILQESSRKLEALNQELANSNRLKDEFLATVTHELRTPMSGVIGSLELMQTVPMDVELAEYQRTAAGSARDMMRMVNDILALIELQAGKLYPRREPFSLRGLFDSLRAQYAPRVEEKGLRFALQLDDSLPDTLEGDAGKLAQALGYLVDNAIKFTARGSVTLRVAAGRTHDGVALRVEVIDTGIGFDMAAGSDLYQRFVQADSSLTRGYGGLGIGLALCRKLVELLGGELTHESRPGQGSRFLLRLQLTQPAQGLAPPPRRAGGQAVRRPEECTVLVVEDNAINQLVTRGMLLKLGYRVRTADNGSEALELLARERPDGVLLDCQMPVMDGFATCRAIRALPGCAELPVLALTAHSHSGDRERCLAAGMSDYMAKPVKFEELQTLLHDWLLCQPIVTKSA,failed
5,MRIAGIEPESIVDGPGIRFTVFTQGCPLQCPGCHNPATWDPCGGQEVDVEEVIAAMNSSVLASGLTLSGGEASRQPRACARLARAAHEMGWDVWSWSGYTVEALMRQARRDAELADMLGQIDVLVDGPFQLVHRTLTLPWRGSSNQRVIDMPATLRGGRAVEWADRAGNLR,failed
6,MRIDLSVPKVGAELELNKVLGKGSSGSVSLIKYKSRLDGQTLYAAVKTSNIIHADSLLKEFQILSEFKGCSRIVQCYGTKVQETINEEGDVEFTIPMEYASGGSLRHFMSRFKDMKLPDALIRRFTRMILEGLAVIHGHGYVHCDLKPENILVFPSFELKISDFGLSKREGDSKWWLPSHPFAGTPVYMSPESISNGETRRGLDLWSLGCVVLEMYTGKRPWWDKNYDLGDLKKGSMPLISKDIPCDAKLFVMTCFASETNKRKNAFTLLRHCFLRGDVNKIIEPLVKSKNSNDIALELENIEHRLSQLRCISGG,failed
7,MRIGHGFDVHAFGGEGPIIIGGVRIPYEKGLLAHSDGDVALHALTDALLGAAALGDIGKLFPDTDPAFKGADSRELLREAWRRIQAKGYTLGNVDVTIIAQAPKMLPHIPQMRVFIAEDLGCHMDDVNVKATTTEKLGFTGRGEGIACEAVALLIKATK,not failed
8,MRIGIISVGPGNIMNLYRGVKRASENFEDVSIELVESPRNDLYDLLFIPGVGHFGEGMRRLRENDLIDFVRKHVEDERYVVGVCLGMQLLFEESEEAPGVKGLSLIEGNVVKLRSRRLPHMGWNEVIFKDTFPNGYYYFVHTYRAVCEEEHVLGTTEYDGEIFPSAVRKGRILGFQFHPEKSSKIGRKLLEKVIECSLSRR,not failed
9,MRIGQYQLRNRLIAAPMAGITDRPFRTLCYEMGAGLTVSEMMSSNPQVWESDKSRLRMVHIDEPGIRTVQIAGSDPKEMADAARINVESGAQIIDINMGCPAKKVNRKLAGSALLQYPDVVKSILTEVVNAVDVPVTLKIRTGWAPEHRNCEEIAQLAEDCGIQALTIHGRTRACLFNGEAEYDSIRAVKQKVSIPVIANGDITDPLKARAVLDYTGADALMIGRAAQGRPWIFREIQHYLDTGELLPPLPLAEVKRLLCAHVRELHDFYGPAKGYRIARKHVSWYLQEHAPNDQFRRTFNAIEDASEQLEALEAYFENFA,failed
10,MRIGVYVCHCGLNIAGVIDVSALEEMAGELEDVVLAREVQFLCSDSGQEGIIKDIKDNKIDRVVIAACSPRLHEKTFRHVMEKADLNPYLMEMVNIREQCSWVHADDPQMATQKAFDLIRMGVAKARFLRELSATSSKASRNVLIIGGGVAGIEAALNLAEAGFPVTMVERESTIGGKMALMNEVFPTNDCSICVLAPKMTEVQNHPNITLYTYSEVTDISGSVGKFHVRVTRKPRFVLEDKCKGCVDLCSEVCPVEIENPMNYGIGKSRAIYMPIPQSVPQVVLIDPDHCVGCGLCQLACPAEAVDYEQKPEEIEFEAGAVIVSTGYQLFDASRKKEYGFGKYPDVITNMQLERMLNSAGPTGGRVLVPSTGQPPESVAFIQCVGSRDKTVGNEHCSRVCCMAALKNSQMVKERYPGTDITIHYIDIRAAGEMYEEYYARTQGMGVDFIRGKVAEVYAGEDGRPVVRYENTLESRVEEEAHDLVVLSTGYEPSKAAEGIGRMLNLARRPDRFFASAHPKMRPVDAPVSGVFLAGCASGPKEIQVSIAQGSACASKVMQLLGTGELEADPMGAHVDPDKCIGCRTCVEVCKFGKISIVDKKAVVDEVSCYGCGDCSAACPVGAIQMRNFENEQILAQVRAATAHKSQCPFVVAFLCNWCSYACADLTGMSRIHYPTNIRVIRTMCSARINPEFVLEALKGGADGVLVAGCRMDECHYIHGNFDAKKRMDVLKEIIKEIGLDPKRLRTLWISAAEGERFSNTITEFVKELEEIGPIGSELKREYTATGLEEVAK,failed
11,MRIIKNIILISLLFAIILVSLFFGEKWVRTNVKNQAIVYNSQLNPTVMISGSSANNHRFDNLVAILNRQSTTHSLLRVQVNEDNSISYSGRIRPNDSQPYIVIGFQNNSDGYANIKRQAKWLEIAMKFLQKRYHFNHFNAFGHSNGGLDWTIYLEKYFNQKSSTIGTLMTVGSPFNFSEKSESNRTQMLTDLIKNRSKLPRDMTVYSIAGTETYNDDGIVPIESVLSGKYVFQKNVHSYTQITVSGNDSEHSDLPTNPQIVQLIQRDILDGRGQKQSSNPVFNNH,failed
12,MRILLTTLNAKYIHVNLALRYLRACCRDLPHTFILDEFTINDHPEHIAAAIYRHRPDLVAFSCYIWNIEPTLAVAAILKKVRPELTILCGGPEVSFDTAAFLAQNPQIDLVITGEGEIPFRALLEQLAGQQRPPAGNREEPLTASMYRPAGGRPAPGPVPDPAAIPGLAWRRGAETIVNPPAPPLRDLDTIPFPYQEDLDAAGNELSQRTVYYETSRGCPFACGFCLSSTTEGLRYFSLERVRDDLERLLKAGVREIKFVDRTFNAHKKRALAIWEFLLSRRPRARCYFEIAGDRLDEEMLAHLNRVPPDLFQFEIGVQTIDAGVNARCNRRQDWARLAANTRRLREMGSIRLHLDLIAGLPGETYAGVGESFDAVVALKPHEIQLGFLKLLKGTTLRARADEFGYLFLDRPPYQVLASSAITYEEMLRLHAIEGLLKYYGNSHLADHAFAYLAATAFDGSYFAIYEALAAWWEARGLLRRGHSQRDLFNHLASFAIHLARGIATRVTVPPLPGYHDSILEINSHGDTPASGAEHSGCARNLTPAQLDRFYQLLKFDCLCRDRSRNFPGWMPPSPLTEEERSNWMARITTPRSMEKYMPGLVKESPANLRRHGFIELFPCHPERPEEDNPTIVFFYYGPPGSETRVYYLQAPPLVV,failed
13,MRILTLGLDGSGEFAFQSHAHTDHFANGRLIFATRPTIFLSHLRNSRYYIPVDFGKKFYIGDFKAKLYPSGHILGSSGIKIWLDEGTLYYTGDVKVKKLRTVERAKLPKADFLIIESTFGLPRFTFPDPRESEKVIIGIVEDLIDRGKVPTFMANPYGKAQEIIKILNVHGYSVSVDREIAKVSKFYMKFGVRLKFEKEGEVKVSSSKGISVSGFGRIKLSNHADFWELLEIVERVNPEKVFTVYGHAEAFAKILNGLGYEAKSIRRNQKLEVWLEHHHHHH,failed
14,MRINILSEDTSNKIAAGEVVERPFSVVKELVENSIDAGAKTINIEIENGGRTLIKVLDDGYGIDKDDIEKAFMPHATSKISKLQDIYSINTLGFRGEALPSIASVSKTTLKSRTKENEFGREISISGGSVDYIKDCGTNIGTHIEVRDLFYNVPAREKFLKSTAKEASSISDIVNRLALAHSEISFRLINNGKRVITTYATDNLIDTIRAIYGKKICDNVISFERHTDLVSVHGYVGNAEISRGSRNNQSIFINKRYIKNKLITAAVENAVKSFMMINKFPFFIIFLDIFPEFVDVNVHPTKSEVKFQNERDIFKIIFDTVHEGIRNSLKESFKVEALKEEEDKLFDIKEDVITKNEIKHDDKIDGYIKKDSFPVPVQIPIDLKRPIENYDNSTKENKDRSFDDFREKDIIKETSQEKETYDIITNKKAKFPELRVIGQFNNTYILAESFEELYIIDQHAAHEKILFEKYREDIKNKGVSSQILITPSVVELLPEDFIYYDENKEVFKNAGFVIEYFGDNTVAIKEVPLFLGKPLVKDLFLEIIDNLKNMGSGETSEVKYRSIATAACKSAVKAYHELTHDEMKTLIQDLRFAEDPFNCPHGRPTIVRLTVTDFEKKFKRIQ,failed
15,MRIQTTFSRKLVLMSLLAVFCGCADVHSSVKGDAMVEQAKGGVLREIKVAETGEGARVVLSADRPLAYTFYKTADPPKAVIDLARTEPGAIASPMDVNSDTIRRIETVRYGEGATAMTRVEVYFTRDTEANATIDASDKGMLVLAVARPVAPAASVAVEAAPAAGQAGESSTGAPVAVAAAPAVAPAPVAVEPQAPIAPVVAPQTGPPVIKAIEAQNGYLVIETSGEIKDFKFFRLAKPDRLVVDISDARLGINSKAIPLNALGVGMARIGAYPDKVRIVLDAAGGTLSPLNVTKGAAGLIVAPADKVVDVPRAAAPPQPSASASQARQPEAVKSAEPAKGLTPAVDAIEFKVLDGTSRITVAVTGACANDKPVKSADGFSVTLRNCILPKKLQRHLDTGAFASVVQKVTPYQVKTKGRSDVKIQVQLRQPASYDVRRDGDLLQVSVRNPEGFEPPVADVPASPTLQDGMDQAAVRQKEPSRETDPLAGVAQSGGTKKAYTGRRVTLEFSDADIRKIFQLIAEVSNLNFLVGDDVTGTISLKLVNVPWDQALDVILENKGLGMQRDGNIVQIRPKSKIQTLADEEQALKRAKERGMELKTEVFDINFAAVGDIVSQFNAVKSERGTISQDARTNRVIVKDIEPALAEMRILLKNLDLPEKQVLIEARIVEATSTFTRDLGVQWGIHSNDSGADIIRSVDAGFGGIVTPPPASGFPAATSSGGAVGISFAKMGSLQVDLRLSAAAVAGLVKIVSTPKVVTLNNKAAKISQGQSIPYQTTSAEGTKTEFVEAALTLEVTPHITADGSVSMKIKASNNSAGTGSPPPINKKEATTELLVKNGETTVIGGIYVDSDTDEDRGVPFLMDIPVLGWLFKSNTKNKTKTELLIFITPKIVS,failed
